This passage reports percent of parent results from article PMC3948114.

The assay concerns the target HLA-B*27:05-KK10 tetramer. Description: tetramer staining of transfected HEK293 cells. As to conditions: 0.2 μg tetramer; parent: est. 100; read off a plot.
Regarding “FLAG-tagged 3DL1*001 (from UniProt P43629) D230A”, the percent of parent is 30 % of ·001.

As for “FLAG-tagged 3DL1*001 (from UniProt P43629) E282A”, the percent of parent was 22 % of ·001.

As to “FLAG-tagged 3DL1*001 (from UniProt P43629) M165A”, the percent of parent was 52 % of ·001.

In the case of “FLAG-tagged 3DL1*001 (from UniProt P43629) Y200A”, the percent of parent is 8 % of ·001.

For the substance “FLAG-tagged 3DL1*001 (from UniProt P43629) Y200F”, the percent of parent was 36 % of ·001.

Take “FLAG-tagged 3DL1*001 (from UniProt P43629) L166V”: the percent of parent was 20 % of ·001.

For the substance “FLAG-tagged 3DL1*001 (from UniProt P43629) A167G”, the percent of parent is 76 % of ·001.

For “FLAG-tagged 3DL1*001 (from UniProt P43629) P199A”, the percent of parent was 10 % of ·001.

Turning to “FLAG-tagged 3DL1*001 (from UniProt P43629) E282Q”, the percent of parent is 44 % of ·001.

In the case of “FLAG-tagged 3DL1*001 (from UniProt P43629) L166A”, the percent of parent was 180 % of ·001.
